In assay [1] the target is Streptococcus thermophilus QueG (epoxyqueuosine reductase) (Streptococcus thermophilus). Nature of the assay: native MS; nano-ESI, Waters Synapt G2, protein at 3-30 uM in anaerobic 100 mM ammonium acetate pH 6.8; monomer to dimer.
Assay [2] shares this target. The assay is described as above. This is another data set of the same source.

Read-outs that look alike come from different tables or passages of the source.

On to “Streptococcus thermophilus QueG (epoxyqueuosine reductase) (enzyme)”, for which, in assay [1], the proportion of dimer came out at 5% and the stoichiometry N was 2. Moreover, the proportion of dimer in assay [2] was < 5%.
